Assay [1] addresses AtcyclinD2;1/AtCDKA active kinase complex (Arabidopsis) (UniProt P42752). In words: cell-based or functional assay.
For assay [2], the target named is T1, AtcyclinD2;1/AtCDKA active kinase complex (Arabidopsis, UniProt P42752 1-361; P24100 1-294). The assay can be described thus: cell-based or functional assay.
Assay [3] concerns the target T1, AtcyclinD2;1/AtCDKA active kinase …. The assay can be described thus: in vitro binding experiments.
In assay [4] the target is T2, Arabidopsis cyclin D2;1 (AtcyclinD2;1), FLAG tagged (Arabidopsis, UniProt P42752 1-361).
T2 construct: Made in Sf9 insect cells from the pAcHLT transfer vector; used as insect cell protein extract
T2 sequence: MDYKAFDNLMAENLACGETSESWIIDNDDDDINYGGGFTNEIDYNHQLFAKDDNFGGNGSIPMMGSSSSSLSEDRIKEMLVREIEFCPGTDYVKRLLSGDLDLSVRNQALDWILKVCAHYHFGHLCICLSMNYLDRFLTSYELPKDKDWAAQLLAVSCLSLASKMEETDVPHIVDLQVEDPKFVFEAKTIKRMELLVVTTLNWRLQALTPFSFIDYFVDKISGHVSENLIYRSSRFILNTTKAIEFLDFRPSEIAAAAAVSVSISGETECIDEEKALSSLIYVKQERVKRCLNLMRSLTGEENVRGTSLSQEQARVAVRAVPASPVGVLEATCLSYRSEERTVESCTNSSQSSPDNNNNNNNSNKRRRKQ
The assay can be described thus: in vitro binding, graded (column Cyclin binding).

This is an account of results in patent publication US20070056058A1 (TARGETED GROWTH, published 2007).

Changes are numbered by the printed parent chain. In names and notes the source's numbering stands. Some results are limits rather than exact numbers.

T1 sequence (P24100 other isoform, or with tags, fused parts or gaps limits assumed): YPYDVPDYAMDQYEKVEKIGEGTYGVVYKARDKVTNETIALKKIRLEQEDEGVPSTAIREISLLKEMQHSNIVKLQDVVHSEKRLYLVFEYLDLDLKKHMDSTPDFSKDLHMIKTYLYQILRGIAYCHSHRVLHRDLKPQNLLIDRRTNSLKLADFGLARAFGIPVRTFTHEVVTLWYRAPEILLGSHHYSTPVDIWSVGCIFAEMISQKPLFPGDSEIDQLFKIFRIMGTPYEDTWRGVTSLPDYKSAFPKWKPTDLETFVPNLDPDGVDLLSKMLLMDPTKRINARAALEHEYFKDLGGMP
Chain of AtcyclinD2;1/AtCDKA active kinase complex (Arabidopsis) (P24100 other isoform, or with tags, fused parts or gaps limits assumed): as above

As for “BnKrp1 #462 (E129A, E130A, I131A, D132A), cyclin binding region mutant”, the IC50 (inhibitory concentration that reduces the kinase activity by 50%) in assay [1] is 1.25 µg. Consider BnKrp1 E164A; W165A, construct #555, for which, in assay [1], the kinase activity restored by 5 µg mutant in the presence of wild-type KRP1 stood at 14% and the kinase activity restored by 10 µg mutant in the presence of wild-type KRP1 came to 15%.

Regarding “BnKrp1 Y149A; F151A; F153A, construct #598”, in assay [1], the kinase activity restored by 5 µg mutant in the presence of 0.6 µg wild-type KRP1 is less than 55% and the kinase activity restored by 10 µg mutant in the presence of wild-type KRP1 was less than 80%.

The molecule “ZmKRP4 (maize KRP, Genbank accession # AY986792)” registered an IC50 of kinase inhibition in assay [1] of 0.035 µg.

B1: BnKRP1 wild type (Brassica napus Krp1), construct BnKrp #461 (other, not shown: small tags and cut ends)
chain: MVRKCRKTKGTVGASSTYMQLRSRRIVYRSEKASSSSSSCCASNNNGVIDLEEERDGETETSSCRRSSKRKLFENLREKESMENSQQIVAGFDSAVKESSDCCCSRRTSLSTTEEKGKSATEQPPTAVEIEDFFVEAEKQLHDNFKKKYNFDFEKEKPLEGRYEWVKL
B1: in assay [2], the “IC50 (inhibitory concentration that reduces the kinase activity by 50%)” value came out at 0.035 µg.

B2: BnKrp1 Y149A, construct #587 (other)
chain: B1 chain with Y149A
notes: also called BnKrp1 #587; not shown: N-terminal 6xHis and poly-Myc tags of pET16b-5MYC
For the molecule B2, the binding result in assay [3] is listed as “binds”.

B3: BnKrp1 F151A, construct #572 (other)
chain: B1 chain with F151A
notes: also called BnKrp1 #572; not shown: N-terminal 6xHis and poly-Myc tags of pET16b-5MYC
Consider B3, for which the binding result in assay [3] and in assay [4] was “binds” throughout.
